US9457043B2, “Combination therapy using c-Met inhibitor and c-Myc inhibitor” (Samsung Electronics Co., Ltd., priority 2013, dated 2016)

How the values were obtained:
[1] = system: SW620 cells; assay: Cell proliferation (CellTiter Glo) in SW620 colon cancer cells; type: cell-based; details: L3-1Y/IgG2 0-2 μg/ml, 72 hours, FIG. 4
Description: (§1) To confirm the effect of co-administration in a colon cancer cell on which an anti-c-Met antibody has no effect when administered alone, HT-29 (ATCC, HTB-38), Ls174T (ATCC, CCL-188), SW620 (ATCC, CCL-227), and LoVo (ATCC, CCL-229) cells were used for assaying the effect of co-administration on cell proliferation.
(§2) In particular, a mixture of c-Myc siRNAs (sic-Myc; mixture of siRNA pools wherein 5′-[…]-3′ (SEQ ID NO: 119), 5′-[…]-3′ (SEQ ID NO: 120), 5′-[…]-3′ (SEQ ID NO: 121), and 5′-[…]-3′ (SEQ ID NO: 122) are mixed at the molar ratio of 1:1:1:1) was reverse transfected to each of HT-29, Ls174T, SW620, and LoVo cells and each transfected cells were incubated in 96-well plate at the amount of 5000 cells/well (medium: 10% FBS in RPMI 1640 (GIBCO), incubation temperature: 37° C.). The reverse transfection was conducted using lipofectamine RNAi max (invitrogen). The reverse transfection was conducted by pre-incubating 10˜20 uM of siRNA diluted in opti-MEM (Gibco) and lipofectamine RNAi max diluted in opti-MEM (Gibco) at room temperature for 15 minutes, and then mixing with 5000 cells/well of the incubated cells, to allow reverse transfection. 24 hours after, the prepared cells were treated with L3-1Y/IgG2. […] The number of the cells was counted through luminescence signal, and the luminescence signal was recorded using Envision 2104 Multi-label Reader (Perkin Elmer). […]

[2] = system: LoVo cells; assay: Cell proliferation (CellTiter Glo) in LoVo colon cancer cells; type: cell-based; details: L3-1Y/IgG2 0-2 μg/ml, 72 hours, FIG. 5
Description: as §1, §2

[3] = system: HT-29 cells; assay: Cell proliferation (CellTiter Glo) in HT-29 colon cancer cells; type: cell-based; details: L3-1Y/IgG2 0-2 μg/ml, 72 hours, FIG. 2
Description: as §1, §2

[4] = system: Ls174T cells; assay: Cell proliferation (CellTiter Glo) in Ls174T colon cancer cells; type: cell-based; details: L3-1Y/IgG2 0-2 μg/ml, 72 hours, FIG. 3
Description: as §1, §2

[5] = system: c-Myc; assay: c-Myc expression level by western blotting in HT-29 cells; type: cell-based; details: 1 μg/ml L3-1Y/IgG2 for 24 hours, western blot, beta-actin control, FIG. 7
Protocol: To reveal the causes of acquirement of effect by co-treatment of an anti-c-Met antibody and c-Myc siRNA on colon cancer cell on which the antibody solely has no effect, the expression level of c-Myc in HT29 (ATCC, HTB-38) treated with an anti-c-Met antibody was measured.
In particular, 20000 cells of HT-29 cell was incubated in 60 mm plate (medium: 10% FBS in RPMI 1640 (GIBCO), incubation temperature: 37° C.). 24 hours after, 1 μg/ml of L3-1Y/IgG2 was treated thereto. 24 hours after, the cells were lysed using Lysis buffer (Roche), thereby obtaining proteins. The concentration of the obtained proteins was measured, and 20 ug of each protein was loaded and subjected to western blotting. The expression amount of c-Myc was detected using c-Myc antibody (Santa-Cruz). A group which is not treated with L3-1Y/IgG2 was used as a control, and the expression amount of beta-actin was used as a control of expression amount of proteins.

[6] = system: HCC1954 cells; assay: Cell proliferation (CellTiter Glo) in HCC1954 breast cancer cells; type: cell-based; details: L3-1Y/IgG2 0-2 μg/ml, 72 hours after antibody treatment, siRNA reverse transfected 24 hours before, FIG. 1
Description: To confirm the effect of co-administration in a breast cancer cell on which an anti-c-Met antibody has no effect when administered alone, HCC1954 (ATCC, CRL 2338) cells were used for assaying the effect of co-administration on cell proliferation.
as §2, with “HCC1954” for “each of HT-29, Ls174T, SW620, and LoVo”, “the” for “each”

[7] = biological target: c-Met (Homo sapiens, UniProt P08581); assay: Specificity of expressed scFv to c-Met; type: binding; details: scFv product after expression
Description: For use in constructing an scFv of the huAbF46 antibody from the heavy and light chain variable regions of the huAbF46 antibody, a gene was designed to have the structure of “VH-linker-VL” for each of the heavy and the light chain variable region, with the linker including the amino acid sequence “[…]” (SEQ ID NO: 54). A polynucleotide sequence (SEQ ID NO: 55) coding for the designed scFv of huAbF46 was synthesized in Bioneer and an expression vector for the polynucleotide had the nucleotide sequence of SEQ ID NO: 56.

Sequence of c-Met (P08581 25-1390): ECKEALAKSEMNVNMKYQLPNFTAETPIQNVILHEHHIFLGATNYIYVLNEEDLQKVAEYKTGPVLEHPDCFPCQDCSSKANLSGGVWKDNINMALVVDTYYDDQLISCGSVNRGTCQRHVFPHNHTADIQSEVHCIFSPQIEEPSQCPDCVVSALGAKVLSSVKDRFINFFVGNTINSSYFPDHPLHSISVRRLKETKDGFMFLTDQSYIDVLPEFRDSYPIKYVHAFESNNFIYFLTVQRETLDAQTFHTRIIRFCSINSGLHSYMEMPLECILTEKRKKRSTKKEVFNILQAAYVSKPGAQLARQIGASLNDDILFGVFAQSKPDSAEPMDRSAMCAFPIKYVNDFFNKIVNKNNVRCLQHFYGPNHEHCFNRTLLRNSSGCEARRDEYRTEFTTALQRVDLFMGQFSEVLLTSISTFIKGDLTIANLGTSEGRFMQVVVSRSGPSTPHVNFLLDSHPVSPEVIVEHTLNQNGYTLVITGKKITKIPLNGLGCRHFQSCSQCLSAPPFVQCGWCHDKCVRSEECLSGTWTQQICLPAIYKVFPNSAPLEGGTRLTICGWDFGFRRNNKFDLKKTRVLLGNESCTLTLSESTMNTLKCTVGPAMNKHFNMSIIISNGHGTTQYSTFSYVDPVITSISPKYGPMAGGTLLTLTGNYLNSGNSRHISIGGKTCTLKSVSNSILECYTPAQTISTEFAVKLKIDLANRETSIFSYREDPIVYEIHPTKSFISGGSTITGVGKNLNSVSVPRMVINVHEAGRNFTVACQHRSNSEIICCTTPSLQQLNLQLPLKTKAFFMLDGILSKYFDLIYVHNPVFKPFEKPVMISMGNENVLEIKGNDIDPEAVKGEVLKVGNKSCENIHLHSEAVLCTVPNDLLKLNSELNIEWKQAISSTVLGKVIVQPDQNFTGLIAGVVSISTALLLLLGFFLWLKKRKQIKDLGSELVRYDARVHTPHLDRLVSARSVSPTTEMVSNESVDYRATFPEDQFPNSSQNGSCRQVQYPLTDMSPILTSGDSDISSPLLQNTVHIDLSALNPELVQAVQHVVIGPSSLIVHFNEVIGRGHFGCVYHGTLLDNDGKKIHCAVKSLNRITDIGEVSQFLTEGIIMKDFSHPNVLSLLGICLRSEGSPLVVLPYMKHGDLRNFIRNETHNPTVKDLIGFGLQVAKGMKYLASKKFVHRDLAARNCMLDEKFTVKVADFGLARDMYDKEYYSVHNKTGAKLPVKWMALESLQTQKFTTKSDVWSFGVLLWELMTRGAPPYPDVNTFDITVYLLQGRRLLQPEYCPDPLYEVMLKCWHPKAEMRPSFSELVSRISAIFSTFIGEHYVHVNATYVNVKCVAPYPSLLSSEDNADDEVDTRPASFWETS

| specificity to c-Met [7] | Molecule | cell proliferation inhibition effect [1] | cell proliferation inhibition effect [2] | cell proliferation inhibition effect [3] | cell proliferation inhibition effect [4] | amount of c-Myc (expression) [5] | cell proliferation inhibition effect [6] |
| --- | --- | --- | --- | --- | --- | --- | --- |
| – | L3-1Y/IgG2: anti-c-Met antibody: huAbF46-H4-A1 heavy chain variable region, human IgG2 hinge and constant region, kappa light chain with tyrosine at position 36 (antibody) heavy: EVQLVESGGGLVQPGGSLRLSCAASGFTFTDYYMSWVRQAPGKGLEWLGFIRNKANGYTTEYSASVKGRFTISRDNSKNTLYLQMNSLRAEDTAVYYCARDNWFAYWGQGTLVTVSSASTKGPSVFPLAPCSRSTSESTAALGCLVKDYFPEPVTVSWNSGALTSGVHTFPAVLQSSGLYSLSSVVTVPSSNFGTQTYTCNVDHKPSNTKVDKTVERKCCVECPPCPAPPVAGPSVFLFPPKPKDTLMISRTPEVTCVVVDVSHEDPEVQFNWYVDGVEVHNAKTKPREEQFNSTFRVVSVLTVVHQDWLNGKEYKCKVSNKGLPAPIEKTISKTKGQPREPQVYTLPPSREEMTKNQVSLTCLVKGFYPSDIAVEWESNGQPENNYKTTPPMLDSDGSFFLYSKLTVDKSRWQQGNVFSCSVMHEALHNHYTQKSLSLSPGK light: DIQMTQSPSSLSASVGDRVTITCKSSQSLLASGNQNNYLAWYQQKPGKAPKMLIIWASTRVSGVPSRFSGSGSGTDFTLTISSLQPEDFATYYCQQSYSRPYTFGQGTKVEIKRTVAAPSVFIFPPSDEQLKSGTASVVCLLNNFYPREAKVQWKVDNALQSGNSQESVTEQDSKDSTYSLSSTLTLSKADYEKHKVYACEVTHQGLSSPVTKSFNRGEC | no cell proliferation inhibition effect is observed | no cell proliferation inhibition effect is observed | no cell proliferation inhibition effect is observed | no cell proliferation inhibition effect is observed | increased amount of c-Myc | no cell proliferation inhibition effect is observed |
| exhibit specificity to c-Met | scFv of huAbF46: VH-linker-VL single-chain Fv of huAbF46 with linker SEQ ID NO: 54 (protein) scFv: EVQLVESGGGLVQPGGSLRLSCAASGFTFTDYYMSWVRQAPGKGLEWLGFIRNKANGYTTEYSASVKGRFTISRDNSKNTLYLQMNSLRAEDTAVYYCARDNWFAYWGQGTLVTVSSGLGGLGGGGSGGGGSGGSSGVGSDIQMTQSPSSLSASVGDRVTITCKSSQSLLASGNQNNYLAWHQQKPGKAPKMLIIWASTRVSGVPSRFSGSGSGTDFTLTISSLQPEDFATYYCQQSYSAPLTFGQGTKVEIKR | – | – | – | – | – | – |
